{"source": "the nanobody polyreactivity screen of Harvey et al. (2022)"}
{"assay": "yeast display, Sf9 membrane polyspecificity reagent, FACS + sequencing; frameworks hold sequencing errors", "procedure,_shortened": "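Genes from sorted yeast were amplified by colony PCR, read by MiSeq 2 × 250 sequencing and filtered on CDR length. These cells carried a synthetic nanobody library in Saccharomyces cerevisiae BJ5465 and were sorted by FACS into low and high (top ~1%) gates on anti-HA and streptavidin fluorescence. Polyreactivity is labelled according to the gate of origin.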"}
{"sequence": "QVQLVESGGGLVQAGVSLRLSWAASGRTGVNAMGWYRQAPGKERGLVAAINTSVGRTYYADSVKGRFTISRDNAKNPVYLQMNCLKPEDTAVYYCNTDRLGAARYDDWGQGTQVTVSS", "polyreactivity (PSR sort gate)": "low polyreactivity"}
{"sequence": "QVQLVESGGGLVQAGWSLRLSCAASGRTFTHAMGWYRQAPGKERELVADISSGGSPNYADSVKGRFTISRDNAKNSVYLQMNSLKREDTAVSYCAAVSGSLYGYSVDYWGQGTQVTGSS", "polyreactivity (PSR sort gate)": "low polyreactivity"}
{"sequence": "QVQLVESGGGLVQARGILRLSCAASGIIFYTYAMGLYRQAPGKERELVAAITARTANTYYADSVKGRFTISRDNAKNTVYLQMNSLKPEDTAVYYCAAAIYSYRTPYYYWGQGTQVTVSS", "polyreactivity (PSR sort gate)": "high polyreactivity"}
{"sequence": "QVQLVESGGGLVQARGSLRLICAASGFTFYRYVMGWYRQAPGKVRELVAAITGRGGSTYYADSVKGRFTISRDNAKNTVYLQMNSRKPEDTAVYYCAARYVTGTLYLAPYEYWGQGTQVTLSS", "polyreactivity (PSR sort gate)": "low polyreactivity"}
{"sequence": "QVQLVESGGGLVQARGSLRLICAASGSTFGVHAMGWSRQAPGKERELVAAITWRGGSTYYADSLKGRFTISRDTAKNTVYLQMNSLKPEDTAVYYCAADPRYYSYEYWGEGTQVTVSS", "polyreactivity (PSR sort gate)": "high polyreactivity"}
{"sequence": "QVQLVESGGGLVQARGSLRLSCAASGFIFGYYAKGWYRQAPGKERELVAAISPSGGRTYYADSVKGRFTISRDNAKNTVYLQMNILKPEDTAVYYCAAEYAYSLDPVEDYWGQGTLVTVSS", "polyreactivity (PSR sort gate)": "high polyreactivity"}
{"sequence": "QVQLVESGGGLVQARGSLRLSCAASGIILYRNGMGWYRQAPGKERELVAAISWSTGSTYYADSVKGRFTISRDNAKNTVYLQMNSLKPEDTAVYYCATDYVGYSFGMYYWGQGTQVTVSS", "polyreactivity (PSR sort gate)": "low polyreactivity"}
{"sequence": "QVQLVESGGGLVQARGSLRLSCAASGITFGRNTMGWYRQAPGKERELVAAIDSGGNTYADSVKGRFTISRDNAKNTVYLQMNSLKPDDTAVYYCAVDGGEFSSYGYWGQGTQVTVSS", "polyreactivity (PSR sort gate)": "low polyreactivity"}
{"sequence": "QVQLVESGGGLVQARGSLRLSCAASGLTSRYYAMGWYRQAPGKERELVAAISSRGGRTYYADSVKGPFTISRDNAKNTVYLQMNSLQPEDTAVYYCYAAAGAYSFLSTYNRGEEYWGQGTQVTVSS", "polyreactivity (PSR sort gate)": "high polyreactivity"}
{"sequence": "QVQLVESGGGLVQARGSLRLSCAASGRIFNTYAMGRYIQAPGKERELVAAITSSGGSTYYADSVKGRFTISRDNAKNTVYFQMNSLKPEDTAVYYCNAGSLHRRYYYEGDYWGQGTQVTVSS", "polyreactivity (PSR sort gate)": "high polyreactivity"}
{"sequence": "QVQLVESGGGLVQARGSLRLSCAASGRIFRYYAMGSYRQAPGKERELVASITSGARTSYADSVKGRFTISRDIAKNTVYLQMNSLKPEDTAVYYCAAGGRARTYYYWGQGTQVTVSS", "polyreactivity (PSR sort gate)": "high polyreactivity"}
{"sequence": "QVQLVESGGGLVQARGSLRLSCAASGRTISYNVMGWYRQAPGKERELVAAITWTGGSTYYADSVKGRFTISRDNAKNTVYLLMNSLKPEDTAVYYCNAAKPYAYWVPNDYWGQGTQVTVSS", "polyreactivity (PSR sort gate)": "low polyreactivity"}
{"sequence": "QVQLVESGGGLVQARGSLRLSCAASGSIFGYNVMGWYRQAPGIERELVAAITVNGGRTYYADSVKGRFTISRDNAKNTVYLQMNSLIPEDTAVDDCAARVTGTQRSGYYWGQGTQVTVSS", "polyreactivity (PSR sort gate)": "high polyreactivity"}
{"sequence": "QVQLVESGGGLVQARGSLRLSCAASGSIFNLYAMGWYRQAPGKEREFVASISYSGGSTYYADSVKGRFTISRDNAKNTVYLQINSLKPEDTAVYYCNARLEVYGQRYDYWGQGTQVTVSS", "polyreactivity (PSR sort gate)": "low polyreactivity"}
{"sequence": "QVQLVESGGGLVQARGSLRLSCAASGSIFSANAMGWYRQAPVKERELVAAISSSGNTNYADSVKGRFTISRDNAKNTLYLQMNSLKPEDTAVYYCAVELKQVTPGLGYITLDYWGQGTQVTVSS", "polyreactivity (PSR sort gate)": "low polyreactivity"}
{"sequence": "QVQLVESGGGLVQARGSLRLSCAASGSIFYGYALGWYRQAPGKERELVAAITSSGTRTYYADSVKGRFTISRDNAKNTVYLQMNSLKPEDTAVYYCAADGPGYQYDFWGQGTQVTVSS", "polyreactivity (PSR sort gate)": "high polyreactivity"}
